± gives the uncertainty stated by the source.
Experiment: abundance fitness (aPCA) (normalised: wild type 0, dead -1); higher = more abundant; growth selection in yeast, the domain comes from the species named
Settings: Homo sapiens
“E3 ubiquitin-protein ligase NEDD4-like P197Y, Q96PU5” gave an abundance fitness of -0.058 ± 0.08.
In the case of “E3 ubiquitin-protein ligase NEDD4-like E200F, Q96PU5”, the abundance fitness is reported as -0.328 ± 0.083.
For “E3 ubiquitin-protein ligase NEDD4-like E201N, Q96PU5”, the abundance fitness was -0.212 ± 0.06.
“E3 ubiquitin-protein ligase NEDD4-like H186K, Q96PU5” gave an abundance fitness of -0.222 ± 0.079.
For “E3 ubiquitin-protein ligase NEDD4-like Q220E, Q96PU5”, the abundance fitness was -0.555 ± 0.084.
“E3 ubiquitin-protein ligase NEDD4-like D204P, Q96PU5” gave an abundance fitness of -0.897 ± 0.15.
For “E3 ubiquitin-protein ligase NEDD4-like V229R, Q96PU5”, the abundance fitness was -0.016 ± 0.061.
In the case of “E3 ubiquitin-protein ligase NEDD4-like P196H, Q96PU5”, the abundance fitness is reported as -0.413 ± 0.097.
Work on “E3 ubiquitin-protein ligase NEDD4-like D228L, Q96PU5” yielded an abundance fitness of -0.14 ± 0.062.
Substance “E3 ubiquitin-protein ligase NEDD4-like E200T, Q96PU5” has an abundance fitness of -0.138 ± 0.081.
Work on “E3 ubiquitin-protein ligase NEDD4-like T209F, Q96PU5” yielded an abundance fitness of -0.325 ± 0.083.
For “E3 ubiquitin-protein ligase NEDD4-like E201L, Q96PU5”, the abundance fitness was -0.257 ± 0.061.
Work on “E3 ubiquitin-protein ligase NEDD4-like G198H, Q96PU5” yielded an abundance fitness of -0.197 ± 0.11.
Substance “E3 ubiquitin-protein ligase NEDD4-like N213G, Q96PU5” has an abundance fitness of -0.326 ± 0.084.
With “E3 ubiquitin-protein ligase NEDD4-like Q220A, Q96PU5” the abundance fitness was -0.096 ± 0.057.
Work on “E3 ubiquitin-protein ligase NEDD4-like N215C, Q96PU5” yielded an abundance fitness of -0.178 ± 0.084.
For “E3 ubiquitin-protein ligase NEDD4-like D228G, Q96PU5”, the abundance fitness was 0.031 ± 0.056.
Substance “E3 ubiquitin-protein ligase NEDD4-like D204N, Q96PU5” has an abundance fitness of -0.451 ± 0.14.
Work on “E3 ubiquitin-protein ligase NEDD4-like P194S, Q96PU5” yielded an abundance fitness of -0.06 ± 0.065.
In the case of “E3 ubiquitin-protein ligase NEDD4-like L190V, Q96PU5”, the abundance fitness is reported as -0.053 ± 0.053.
“E3 ubiquitin-protein ligase NEDD4-like H186C, Q96PU5” showed an abundance fitness of -0.282 ± 0.093.
“E3 ubiquitin-protein ligase NEDD4-like P193T, Q96PU5” showed an abundance fitness of -0.177 ± 0.075.
“E3 ubiquitin-protein ligase NEDD4-like E232N, Q96PU5” showed an abundance fitness of 0.022 ± 0.072.
In the case of “E3 ubiquitin-protein ligase NEDD4-like D204G, Q96PU5”, the abundance fitness is reported as -0.491 ± 0.057.
In the case of “E3 ubiquitin-protein ligase NEDD4-like Y210Q, Q96PU5”, the abundance fitness is reported as -0.198 ± 0.069.
With “E3 ubiquitin-protein ligase NEDD4-like V203H, Q96PU5” the abundance fitness was 0.016 ± 0.11.
Work on “E3 ubiquitin-protein ligase NEDD4-like E200Q, Q96PU5” yielded an abundance fitness of -0.072 ± 0.11.
Substance “E3 ubiquitin-protein ligase NEDD4-like P194N, Q96PU5” has an abundance fitness of -0.304 ± 0.11.
For “E3 ubiquitin-protein ligase NEDD4-like H222P, Q96PU5”, the abundance fitness was -0.133 ± 0.063.
For “E3 ubiquitin-protein ligase NEDD4-like N205A, Q96PU5”, the abundance fitness was -0.057 ± 0.06.
“E3 ubiquitin-protein ligase NEDD4-like L206I, Q96PU5” showed an abundance fitness of -0.159 ± 0.13.
With “E3 ubiquitin-protein ligase NEDD4-like H214T, Q96PU5” the abundance fitness was -0.062 ± 0.067.
“E3 ubiquitin-protein ligase NEDD4-like E200P, Q96PU5” showed an abundance fitness of -1.29 ± 0.2.
For “E3 ubiquitin-protein ligase NEDD4-like N205T, Q96PU5”, the abundance fitness was 0.029 ± 0.092.
With “E3 ubiquitin-protein ligase NEDD4-like V229C, Q96PU5” the abundance fitness was -0.203 ± 0.084.
Work on “E3 ubiquitin-protein ligase NEDD4-like S231M, Q96PU5” yielded an abundance fitness of -0.222 ± 0.08.
For “E3 ubiquitin-protein ligase NEDD4-like G198V, Q96PU5”, the abundance fitness was -0.291 ± 0.062.
Work on “E3 ubiquitin-protein ligase NEDD4-like E232M, Q96PU5” yielded an abundance fitness of -0.402 ± 0.12.

Reference: the Human Domainome abundance scans (Beltran et al. 2025)
